Reference: IntAct's records for PubMed 26305884

Biological target: ccyl1_mouse Ccnyl1 (UniProt D3YUJ3)
Sequence (D3YUJ3 whole entry): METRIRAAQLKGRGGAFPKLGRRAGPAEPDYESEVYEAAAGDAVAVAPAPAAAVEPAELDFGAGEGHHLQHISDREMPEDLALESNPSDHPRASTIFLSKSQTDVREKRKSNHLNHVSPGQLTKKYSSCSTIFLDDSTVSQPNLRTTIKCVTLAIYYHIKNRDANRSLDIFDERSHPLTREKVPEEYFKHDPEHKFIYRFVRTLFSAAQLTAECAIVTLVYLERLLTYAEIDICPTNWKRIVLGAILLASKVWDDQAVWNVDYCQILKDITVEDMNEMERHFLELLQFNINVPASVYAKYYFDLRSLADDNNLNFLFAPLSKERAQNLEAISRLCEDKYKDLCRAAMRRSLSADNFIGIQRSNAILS

Chain of Cyclin-dependent kinase 16 (Mus musculus), Q04735 S153D (Q04735 whole entry S153D): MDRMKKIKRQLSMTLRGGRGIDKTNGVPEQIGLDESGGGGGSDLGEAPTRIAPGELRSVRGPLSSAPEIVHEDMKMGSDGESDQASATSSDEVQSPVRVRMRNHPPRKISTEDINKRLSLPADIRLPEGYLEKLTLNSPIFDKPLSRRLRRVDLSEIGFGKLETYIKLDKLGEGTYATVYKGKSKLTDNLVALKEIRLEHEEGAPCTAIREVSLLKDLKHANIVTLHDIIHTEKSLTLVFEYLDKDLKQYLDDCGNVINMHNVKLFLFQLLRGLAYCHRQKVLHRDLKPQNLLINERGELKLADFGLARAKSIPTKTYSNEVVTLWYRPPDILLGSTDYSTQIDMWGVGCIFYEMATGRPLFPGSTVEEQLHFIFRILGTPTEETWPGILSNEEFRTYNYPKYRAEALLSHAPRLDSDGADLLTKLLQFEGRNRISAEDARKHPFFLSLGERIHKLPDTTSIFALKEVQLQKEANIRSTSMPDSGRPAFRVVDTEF
Chain of Cyclin-dependent kinase 16 (Mus musculus), Q04735 S110A (Q04735 whole entry S110A): as the sequence (Q04735 whole entry S153D) above, with S110A, D153S counted along it
Chain of Cyclin-dependent kinase 16 (Mus musculus), Q04735 S110D (Q04735 whole entry S110D): as the sequence (Q04735 whole entry S153D) above, with S110D, D153S counted along it
Chain of Cyclin-dependent kinase 16 (Mus musculus), Q04735 S146D (Q04735 whole entry S146D): as the sequence (Q04735 whole entry S153D) above, with S146D, D153S counted along it
Chain of Cyclin-dependent kinase 16 (Mus musculus), Q04735 S78A (Q04735 whole entry S78A): as the sequence (Q04735 whole entry S153D) above, with S78A, D153S counted along it
Chain of Cyclin-dependent kinase 16 (Mus musculus), Q04735 S146A (Q04735 whole entry S146A): as the sequence (Q04735 whole entry S153D) above, with S146A, D153S counted along it
Chain of Cyclin-dependent kinase 16 (Mus musculus), Q04735 S153A (Q04735 whole entry S153A): as the sequence (Q04735 whole entry S153D) above, with D153A counted along it
Chain of Cyclin-dependent kinase 16 (Mus musculus), Q04735 S119A (Q04735 whole entry S119A): as the sequence (Q04735 whole entry S153D) above, with S119A, D153S counted along it

Row | Substance | effect of a mutation on the interaction
1 | Cyclin-dependent kinase 16 (Mus musculus), Q04735 P205A;T207A;R210A;E211A | disrupting interaction strength
2 | Cyclin-dependent kinase 16 (Mus musculus), Q04735 S78A | increasing interaction strength
3 | Cyclin-dependent kinase 16 (Mus musculus), Q04735 S110A | decreasing interaction strength
4 | Cyclin-dependent kinase 16 (Mus musculus), Q04735 S110D | decreasing interaction strength
5 | Cyclin-dependent kinase 16 (Mus musculus), Q04735 S119A | decreasing interaction strength
6 | Cyclin-dependent kinase 16 (Mus musculus), Q04735 S146A | disrupting interaction strength
7 | Cyclin-dependent kinase 16 (Mus musculus), Q04735 S146D | disrupting interaction strength
8 | Cyclin-dependent kinase 16 (Mus musculus), Q04735 S153A | increasing interaction strength
9 | Cyclin-dependent kinase 16 (Mus musculus), Q04735 S153D | decreasing interaction strength
10 | Cyclin-dependent kinase 16 (Mus musculus), Q04735 T175A | decreasing interaction strength
11 | Cyclin-dependent kinase 16 (Mus musculus), Q04735 T175D | increasing interaction strength
